Experiments:
[1] = target: Gal4 activation domain-E2F-1 hybrid protein (pGAD.E2F-1) (yeast) (UniProt P04386); assay: cell-based or functional assay
wild-type E2F-1^1-437 = target: T1, wild-type E2F-1^1-437 (Homo sapiens (Human), UniProt Q01094 1-437, radiolabelled with 35S methionine (in vitro translated form) ; chain 1: radiolabelled with 35S methionine (in vitro translated form); letters unchanged); assay: GST pull-down (glutathione-agarose) of in vitro translated 35S-labelled E2F-1
T1 construct: Translated in reticulocyte lysate for the pull-down; The same full-length protein was expressed from pE2F-1/pCMV E2F-1 in the transfection assays; also called in vitro transcribed and translated E2F-1 polypeptide; pE2F-1
T1 sequence (Q01094 whole entry): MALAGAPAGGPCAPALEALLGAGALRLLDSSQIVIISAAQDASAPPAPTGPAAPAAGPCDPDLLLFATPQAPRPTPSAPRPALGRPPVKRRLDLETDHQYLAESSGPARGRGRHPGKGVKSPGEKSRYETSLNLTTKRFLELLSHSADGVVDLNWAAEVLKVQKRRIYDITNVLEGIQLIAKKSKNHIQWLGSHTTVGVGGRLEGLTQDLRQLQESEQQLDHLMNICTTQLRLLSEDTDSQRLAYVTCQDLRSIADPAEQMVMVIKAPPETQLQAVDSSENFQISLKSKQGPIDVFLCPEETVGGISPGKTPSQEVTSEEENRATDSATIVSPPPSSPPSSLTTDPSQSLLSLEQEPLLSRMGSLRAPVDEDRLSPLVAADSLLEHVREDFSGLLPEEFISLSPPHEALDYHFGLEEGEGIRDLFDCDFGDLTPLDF
Source text: DP-1 and E2F-1 were expressed as, and released from, GST fusion proteins as previously described (Girling et al., 1993). About 100-fold excess of the competing binding sites were used in gel retardation assays, with the binding site taken from the adenovirus E2A promoter (−71 to −50). The wild-type E2F-1 coding sequence was transcribed and further translated using reticulocyte lysate (Promega) and radiolabelled with ^35S methionine. In the dimerization assay (FIG. 2d), GST-DP-1 fusion protein was incubated with E2F-1 polypeptide for 30 min at 30° C., collected with glutathione-agarose (Sigma), and washed repeatedly with 0.1% NF40-in PBSA. Bound E2F-1 polypeptide was released by denaturation in SDS sample buffer and resolved in a 10% polyacrylamide gel.
GST fusion proteins, or GST protein along (track 2), were collected with glutathione-agarose beads and bound E2F-1 polypeptide released.

[2] = target: DP-1(84-204)/E2F-1(89-437) heteromer (Mus musculus / Homo sapiens?, UniProt Q08639;Q01094 Q08639:84-204,Q01094:89-437); assay: EMSA; less than with DP-1 84-249; settings: tags: DP-1 thrombin-released or GST; E2F-1 GST
Sequence of DP-1(84-204)/E2F-1(89-437) heteromer (Q01094 89-437, one chain of several): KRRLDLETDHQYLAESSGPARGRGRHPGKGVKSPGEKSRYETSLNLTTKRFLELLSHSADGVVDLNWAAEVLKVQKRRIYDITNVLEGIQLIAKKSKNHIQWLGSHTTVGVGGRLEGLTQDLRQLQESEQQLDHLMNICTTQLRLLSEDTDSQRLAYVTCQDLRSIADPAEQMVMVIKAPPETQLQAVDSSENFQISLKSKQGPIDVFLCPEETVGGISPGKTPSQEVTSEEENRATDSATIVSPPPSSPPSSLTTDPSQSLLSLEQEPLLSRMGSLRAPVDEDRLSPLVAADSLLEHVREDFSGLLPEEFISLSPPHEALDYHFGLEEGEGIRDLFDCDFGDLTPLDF
Experimental: (§1) Cell extracts were prepared as previously described (La Thangue et al., 1990). Gel retardation in F9 EC and HeLa cell extracts (about 6.0 µg) in the presence of anti-DP-1 was performed as previously described (Girling et al., 1993), and immunoprecipitation with anti-DP-1 from HeLa cell extracts was performed by standard procedures. The immunoprecipitates were treated with 1% DOC and 1.5% NP40 and the detergent released material assayed for DRTF1/E2F by gel retardation and the presence of E2F-1 by immunoblotting with the anti-E2F-1 monoclonal antibody SQ41 (Kaelin et al., 1992). The anti-DP-1 antibodies, anti-peptide A and anti-peptide 18, have been previously described (Girling et al., 1993). Rabbit anti-E2F-1 antiserum (antiserum 134) was raised against a peptide which represents E2F-1 amino acid sequence 315 to 323. The sequences of the binding sites used to assess DNA binding specificity were derived from the adenovirus E2A promoter (−71 to −50) and were as follows: WT; […] (SEQ ID NO: 7); 62/60, […]; (SEQ ID NO: 8); 63, […] (SEQ ID NO: 9); 64, […] (SEQ ID NO: 10). In FIG. 2a (tracks 1 to 4), the adenovirus E2A promoter (−96 to +68) was used; in all other cases, the distal E2F site in the E2A promoter (sequences −71 to −50) was used. About 100-fold excess of competing binding sites were used in the gel retardation assays.

[3] = target: DP-1(59-410)/E2F-1(89-437) heteromer (Mus musculus / Homo sapiens?, UniProt Q08639;Q01094 Q08639:59-410,Q01094:89-437); assay: EMSA; synergistic; anti-E2F-1 supershift, anti-DP-1 inhibits; settings: tags: GST on both
Sequence of DP-1(59-410)/E2F-1(89-437) heteromer (Q08639 59-410, chain 1 of 2): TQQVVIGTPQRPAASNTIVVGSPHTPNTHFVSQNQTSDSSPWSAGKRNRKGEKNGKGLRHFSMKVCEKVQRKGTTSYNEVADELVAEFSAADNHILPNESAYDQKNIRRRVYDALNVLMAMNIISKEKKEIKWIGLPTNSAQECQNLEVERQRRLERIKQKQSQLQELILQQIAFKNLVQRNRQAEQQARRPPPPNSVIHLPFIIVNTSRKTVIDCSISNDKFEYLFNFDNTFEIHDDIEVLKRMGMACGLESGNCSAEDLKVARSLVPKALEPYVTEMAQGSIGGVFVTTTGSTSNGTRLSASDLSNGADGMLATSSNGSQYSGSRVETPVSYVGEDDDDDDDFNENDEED
Sequence of DP-1(59-410)/E2F-1(89-437) heteromer (Q01094 89-437, chain 2 of 2): as the sequence (Q01094 89-437, one chain of several) above

[4] = target: DP-1(84-249)/E2F-1(89-437) heteromer (Mus musculus / Homo sapiens?, UniProt Q08639;Q01094 Q08639:84-249,Q01094:89-437); assay: EMSA; greater than E2F-1 alone; settings: tags: DP-1 thrombin-released or GST; E2F-1 GST
Sequence of DP-1(84-249)/E2F-1(89-437) heteromer (Q01094 89-437, one chain of several): as above
Experimental: as §1, with “assays. […]” for “assays.”

GST-E2F-1(89-437) = GST-E2F-1(89-437) (UniProt Q01094 Q01094:89-437); assay: EMSA; settings: tags: GST
Sequence of GST-E2F-1(89-437) (Q01094 89-437, one chain of several): as above

Molecule: LexA-DP-1 hybrid protein (pLEX.DP-1) (from UniProt P0A7C2 1-202)
- activity of p4xWT CYC1 (E2F site-dependent transcription in yeast, β-galactosidase) [1]: 50 fold
- transcriptional activity of the LexA reporter construct (yeast two-hybrid, β-galactosidase) [1]: 75 fold

B1: GST-DP-1^84-166 (other)
chain: PNTHFVSQNQTSDSSPWSAGKRNRKGEKNGKGLRHFSMKVCEKVQRKGTTSYNEVADELVAEFSAADNHILPNESAYDQKNIR
notes: Uncleaved GST fusion; not shown: glutathione-S-transferase (GST)
- binding result (wild-type E2F-1^1-437): no binding (tested: about 2 µg GST fusion protein)

B2: E2A distal E2F site WT (-71 to -50) (dsDNA)
DNA 1: TAGTTTTCGCGCTTAAATTTGA
DNA 2: TCAAATTTAAGCGCGAAAACTA
- binding result [2]: binds
- binding result [3]: binds
- binding result [4]: binds
- binding result (GST-E2F-1(89-437)): binds

From patent US7160677, “Transcription factor DP-1” (Topotarget UK Limited)
